One series addresses GST-MeCP2 AT-hook 1 (UniProt P51608). The series can be described thus: competition EMSA. Particulars: 0.8 ug poly(dA-dT) against N1 probe; EMSA: 10 mM Tris-HCl pH 7.5, 50 mM KCl, 0.5 mM MgCl2, 0.1 mM EDTA, 0.1 mg/mL BSA, 5% glycerol; 0.5 ng probe in 20 uL; 30 min on ice; native 6% acrylamide gel. On the technique in general: Mobility shift assays separate free from complexed probe on a gel.

The target in the next series is GST-MeCP2 AT-hook 2 (UniProt P51608). The series can be described thus: competition EMSA. Particulars: 0.8 ug poly(dA-dT) against N1 probe; EMSA: 10 mM Tris-HCl pH 7.5, 50 mM KCl, 0.5 mM MgCl2, 0.1 mM EDTA, 0.1 mg/mL BSA, 5% glycerol; 0.5 ng probe in 20 uL; 30 min on ice; native 6% acrylamide gel.

Chain of UniProt P51608 (P51608 whole entry): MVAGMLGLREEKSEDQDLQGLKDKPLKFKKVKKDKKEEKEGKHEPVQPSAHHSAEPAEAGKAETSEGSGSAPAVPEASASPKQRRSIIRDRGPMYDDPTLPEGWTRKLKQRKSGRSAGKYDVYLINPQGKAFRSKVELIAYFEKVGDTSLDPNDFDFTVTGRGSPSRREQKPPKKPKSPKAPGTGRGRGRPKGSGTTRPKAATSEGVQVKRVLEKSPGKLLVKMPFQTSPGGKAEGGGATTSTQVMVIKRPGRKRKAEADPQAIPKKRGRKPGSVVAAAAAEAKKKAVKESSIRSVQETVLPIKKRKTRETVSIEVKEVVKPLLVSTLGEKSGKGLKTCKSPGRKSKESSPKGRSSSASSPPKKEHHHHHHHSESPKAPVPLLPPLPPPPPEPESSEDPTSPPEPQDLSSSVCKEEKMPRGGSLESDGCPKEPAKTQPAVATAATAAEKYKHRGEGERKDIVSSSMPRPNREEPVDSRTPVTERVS

As for poly(dA-dT), the values for the binding signal (% of bound probe displaced) with GST-MeCP2 AT-hook 1 and with GST-MeCP2 AT-hook 2 were 67 and 20, respectively.
